Legend:
[1] = target: taxol-stabilized microtubules (porcine brain tubulin) (porcine) (UniProt P02550); assay: single molecule observation (TIRF microscopy); as a2, 1 nM Alexa 647-labeled dynein with 2 nM 1B isoform, no BICD2
[2] = target: taxol-stabilized microtubules (porcine brain tubulin) (porcine) (UniProt P02550); assay: single molecule observation (TIRF microscopy); as a2, 1 nM Alexa 647-labeled dynein with 2 nM 1B isoform and 20 nM BICD2 (DDB 1B)
[3] = target: taxol-stabilized microtubules (porcine brain tubulin) (porcine) (UniProt P02550); assay: single molecule observation (TIRF microscopy); as a2, 1 nM Alexa 647-labeled dynein with 2 nM p135 isoform
[4] = target: taxol-stabilized microtubules (porcine brain tubulin) (porcine) (UniProt P02550); assay: single molecule observation (TIRF microscopy); as a2, 1 nM Alexa 647-labeled dynein with 2 nM 1A isoform and 20 nM BICD2 (DDB 1A)
[5] = target: taxol-stabilized microtubules (porcine brain tubulin) (porcine) (UniProt P02550); assay: single molecule observation (TIRF microscopy); as a2, 1 nM Alexa 647-labeled dynein with 20 nM BICD2 (full length), no dynactin
[6] = target: taxol-stabilized microtubules (porcine brain tubulin) (porcine) (UniProt P02550); assay: single molecule observation (TIRF microscopy); as a2, 1 nM Alexa 647-labeled dynein with 2 nM 1BΔCC1 mutant
[7] = target: taxol-stabilized microtubules (porcine brain tubulin) (porcine) (UniProt P02550); assay: single molecule observation (TIRF microscopy); as a2, 1 nM Alexa 647-labeled dynein with 2 nM 1A isoform, no BICD2
[8] = target: dynactin complex containing the DCTN1B (1B) isoform (human (cDNA from HEK293 cells) | human (endogenous in HEK293)) (UniProt Q13561); assay: pull-down; TALON Dynabeads pull-down of purified proteins; dynein and dynactin mixed in 10 mM Pipes-NaOH pH 7.0, 75 mM NaCl, 45 mM imidazole, 0.01% Tween 20, 10 min at 25°C; bound and unbound fractions on SDS-PAGE, dynein heavy chain band quantified by densitometry
[9] = target: taxol-stabilized microtubules (porcine brain tubulin) (porcine) (UniProt P02550); assay: single molecule observation (TIRF microscopy); 1 nM Alexa 647-labeled dynein alone on taxol-stabilized microtubules held on glass by anti-β tubulin antibody; SM buffer (12 mM Pipes-KOH pH 6.8, 25 mM KAce, 1 mM ATP, 2 mM DTT), 25°C; total residence time in a window of 10 s and 10 μm of microtubule
[10] = target: taxol-stabilized microtubules (porcine brain tubulin) (porcine) (UniProt P02550); assay: single molecule observation (TIRF microscopy); 1 nM GFP-labeled dynactin isoform, mutant or fragment alone on taxol-stabilized microtubules held on glass; SM buffer, 1 mM ATP, 25°C; total residence time in a window of 10 s and 10 μm of microtubule

| duration on microtubules, τ (with 1B isoform) [1] | total residence time on microtubules (with 1B isoform) [1] | total residence time on microtubules (with 1B isoform and BICD2) [2] | total residence time on microtubules (with p135 isoform) [3] | total residence time on microtubules (with 1A isoform and BICD2) [4] | total residence time on microtubules (with BICD2) [5] | total residence time on microtubules (with 1BΔCC1 mutant) [6] | fraction not dissociated from microtubules during the observation of 30 s (with 1A isoform) [7] | total residence time on microtubules (with 1A isoform) [7] | Kd [8] | stoichiometry N [8] | total residence time on microtubules [9] | total residence time on microtubules [10] | fraction not dissociated from microtubules during the observation of 30 s [10] | Substance |
| --- | --- | --- | --- | --- | --- | --- | --- | --- | --- | --- | --- | --- | --- | --- |
| 1.2 s | 4.7 s | 19.2 s | 23.8 s | 49.1 s | 51.8 s | 54 s | 79% | 53.2 s | 2.3 nM | 1 | 64.9 s |  |  | cytoplasmic dynein (recombinant dynein complex), Q14204 1-4646 |
|  |  |  |  |  |  |  |  |  |  |  |  | 50 s |  | dynactin complex containing the 1BΔCC1 mutant of DCTN1 (from UniProt P61163 1-376) |
|  |  |  |  |  |  |  |  |  |  |  |  | 60.1 s | 72% | dynactin complex containing the DCTN1A (1A) isoform (from UniProt Q14203-1 1-1278; Q13561 1-401; P61163 1-376) |
